Data reported in the supplement of paper PMC10567573.

B1: KLHL14 (parent)
chain: WLYCYDPVMDVWARKQDMNTKRAI
B2: FBXO39 (parent)
chain: RVFKARIYTNRYETNEEDKTLQEI

Variants of: B1
Assay: protein stability index of a GFP-peptide fusion (GPS, HEK-293T) (PSI 1-6); higher = more stable
Conditions: c terminus: a fixed tail appended
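Note: lentivirally expressed fusions sorted by FACS into six bins by GFP to DsRed ratio, PSI derived from sequencing read proportions per bin multiplied by bin number.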

Q: With QLYCYDPVMDVWARKQDMNTKRAI [W1Q] as the variant, how does the protein stability index read?
A: Its protein stability index is 3.33.

Q: For LLYCYDPVMDVWARKQDMNTKRAI [W1L], which protein stability index is on record?
A: Its protein stability index is 2.53.

Q: For KLYCYDPVMDVWARKQDMNTKRAI [W1K], which protein stability index is on record?
A: Its protein stability index is 2.55.

Q: Which protein stability index does the source give for VLYCYDPVMDVWARKQDMNTKRAI [W1V] here?
A: The protein stability index was 1.63.

Q: For GLYCYDPVMDVWARKQDMNTKRAI [W1G], which protein stability index is on record?
A: The protein stability index was 2.4.

Q: With YLYCYDPVMDVWARKQDMNTKRAI [W1Y] as the variant, how does the protein stability index read?
A: The protein stability index was 2.25.

Q: Which protein stability index does the source give for RLYCYDPVMDVWARKQDMNTKRAI [W1R] here?
A: Its protein stability index is 2.55.

Q: With PLYCYDPVMDVWARKQDMNTKRAI [W1P] as the variant, how does the protein stability index read?
A: The protein stability index was 2.88.

Q: Which protein stability index does the source give for ELYCYDPVMDVWARKQDMNTKRAI [W1E] here?
A: The protein stability index was 3.72.

Q: With MLYCYDPVMDVWARKQDMNTKRAI [W1M] as the variant, how does the protein stability index read?
A: Its protein stability index is 2.62.

Q: With DLYCYDPVMDVWARKQDMNTKRAI [W1D] as the variant, how does the protein stability index read?
A: The protein stability index was 4.41.

Q: For FLYCYDPVMDVWARKQDMNTKRAI [W1F], which protein stability index is on record?
A: The protein stability index was 1.99.

Q: With CLYCYDPVMDVWARKQDMNTKRAI [W1C] as the variant, how does the protein stability index read?
A: The protein stability index was 2.27.

Q: For NLYCYDPVMDVWARKQDMNTKRAI [W1N], which protein stability index is on record?
A: Its protein stability index is 3.29.

Q: Which protein stability index does the source give for HLYCYDPVMDVWARKQDMNTKRAI [W1H] here?
A: Its protein stability index is 3.4.

Q: For TLYCYDPVMDVWARKQDMNTKRAI [W1T], which protein stability index is on record?
A: The protein stability index was 3.09.

Q: Which protein stability index does the source give for ALYCYDPVMDVWARKQDMNTKRAI [W1A] here?
A: The protein stability index was 2.56.

Q: With ILYCYDPVMDVWARKQDMNTKRAI [W1I] as the variant, how does the protein stability index read?
A: The protein stability index was 1.92.

Q: For SLYCYDPVMDVWARKQDMNTKRAI [W1S], which protein stability index is on record?
A: Its protein stability index is 3.06.

Variants of: B2
Assay: as above
Conditions: c terminus: a fixed tail appended

Q: Which protein stability index does the source give for RVFKARIYTNRYETNGEDKTLQEI [E16G] here?
A: Its protein stability index is 2.33.

Q: With RVFKARIYTNRYETNDEDKTLQEI [E16D] as the variant, how does the protein stability index read?
A: The protein stability index was 2.88.

Q: For RVFKARIYTNRYETNPEDKTLQEI [E16P], which protein stability index is on record?
A: The protein stability index was 1.89.

Q: For RVFKARIYTNRYETNVEDKTLQEI [E16V], which protein stability index is on record?
A: Its protein stability index is 1.92.

Q: With RVFKARIYTNRYETNSEDKTLQEI [E16S] as the variant, how does the protein stability index read?
A: The protein stability index was 2.6.

Q: With RVFKARIYTNRYETNQEDKTLQEI [E16Q] as the variant, how does the protein stability index read?
A: The protein stability index was 2.08.

Q: With RVFKARIYTNRYETNREDKTLQEI [E16R] as the variant, how does the protein stability index read?
A: Its protein stability index is 2.33.

Q: Which protein stability index does the source give for RVFKARIYTNRYETNIEDKTLQEI [E16I] here?
A: The protein stability index was 3.1.

Q: For RVFKARIYTNRYETNTEDKTLQEI [E16T], which protein stability index is on record?
A: Its protein stability index is 2.28.

Q: For RVFKARIYTNRYETNAEDKTLQEI [E16A], which protein stability index is on record?
A: Its protein stability index is 2.2.

Q: Which protein stability index does the source give for RVFKARIYTNRYETNHEDKTLQEI [E16H] here?
A: Its protein stability index is 2.58.

Q: With RVFKARIYTNRYETNNEDKTLQEI [E16N] as the variant, how does the protein stability index read?
A: The protein stability index was 1.74.

Q: Which protein stability index does the source give for RVFKARIYTNRYETNCEDKTLQEI [E16C] here?
A: The protein stability index was 2.38.

Q: With RVFKARIYTNRYETNFEDKTLQEI [E16F] as the variant, how does the protein stability index read?
A: The protein stability index was 1.45.

Q: For RVFKARIYTNRYETNYEDKTLQEI [E16Y], which protein stability index is on record?
A: The protein stability index was 1.29.

Q: With RVFKARIYTNRYETNLEDKTLQEI [E16L] as the variant, how does the protein stability index read?
A: The protein stability index was 1.75.

Q: With RVFKARIYTNRYETNWEDKTLQEI [E16W] as the variant, how does the protein stability index read?
A: The protein stability index was 2.27.

Q: Which protein stability index does the source give for RVFKARIYTNRYETMEEDKTLQEI [N15M] here?
A: The protein stability index was 3.15.

Q: Which protein stability index does the source give for RVFKARIYTNRYETPEEDKTLQEI [N15P] here?
A: The protein stability index was 3.01.

Q: For RVFKARIYTNRYETSEEDKTLQEI [N15S], which protein stability index is on record?
A: The protein stability index was 3.14.

Q: With RVFKARIYTNRYETYEEDKTLQEI [N15Y] as the variant, how does the protein stability index read?
A: Its protein stability index is 2.06.

Q: For RVFKARIYTNRYETLEEDKTLQEI [N15L], which protein stability index is on record?
A: The protein stability index was 2.27.

Q: With RVFKARIYTNRYETWEEDKTLQEI [N15W] as the variant, how does the protein stability index read?
A: The protein stability index was 2.61.

Q: For RVFKARIYTNRYETKEEDKTLQEI [N15K], which protein stability index is on record?
A: The protein stability index was 2.28.

Q: With RVFKARIYTNRYETVEEDKTLQEI [N15V] as the variant, how does the protein stability index read?
A: Its protein stability index is 2.12.

Q: For RVFKARIYTNRYETQEEDKTLQEI [N15Q], which protein stability index is on record?
A: Its protein stability index is 2.55.

Q: Which protein stability index does the source give for RVFKARIYTNRYETTEEDKTLQEI [N15T] here?
A: The protein stability index was 3.

Q: For RVFKARIYTNRYETNEEDKTLREI [Q22R], which protein stability index is on record?
A: The protein stability index was 2.91.

Q: With RVFKARIYTNRYETNEEDKTLGEI [Q22G] as the variant, how does the protein stability index read?
A: The protein stability index was 3.19.

Q: For RVFKARIYTNRYETNEEDKTLHEI [Q22H], which protein stability index is on record?
A: Its protein stability index is 1.64.

Q: With RVFKARIYTNRYETNEEDKTLIEI [Q22I] as the variant, how does the protein stability index read?
A: The protein stability index was 1.4.

Q: With RVFKARIYTNRYETNEEDKTLDEI [Q22D] as the variant, how does the protein stability index read?
A: The protein stability index was 3.

Q: For RVFKARIYTNRYETNEEDKTLMEI [Q22M], which protein stability index is on record?
A: Its protein stability index is 2.5.

Q: For RVFKARIYTNRYETNEEDKTLKEI [Q22K], which protein stability index is on record?
A: Its protein stability index is 2.38.

Q: With RVFKARIYTNRYETNEEDKTLVEI [Q22V] as the variant, how does the protein stability index read?
A: The protein stability index was 1.75.

Q: For RVFKARIYTNRYETNEEDKTLNEI [Q22N], which protein stability index is on record?
A: Its protein stability index is 2.49.

Q: Which protein stability index does the source give for RVFKARIYTNRYETNEEDKTLTEI [Q22T] here?
A: The protein stability index was 1.98.

Q: For RVFKARIYTNRYETNEEDKTLLEI [Q22L], which protein stability index is on record?
A: Its protein stability index is 2.33.

Q: For RVFKARIYTNRYETNEEDKTLFEI [Q22F], which protein stability index is on record?
A: The protein stability index was 1.76.

Q: Which protein stability index does the source give for RVFKARIYTNRYETNEEDKTLAEI [Q22A] here?
A: The protein stability index was 3.02.

Q: For RVFKARIYTNRYETNEEDKTLYEI [Q22Y], which protein stability index is on record?
A: The protein stability index was 2.6.

Q: Which protein stability index does the source give for RVFKARIYTNRYETNEEDKTLSEI [Q22S] here?
A: The protein stability index was 1.12.

Q: For RVFKARIYTNRYETNEEDKTLCEI [Q22C], which protein stability index is on record?
A: The protein stability index was 3.48.

Q: Which protein stability index does the source give for RVFKARIYTNRYETNEEDKTLWEI [Q22W] here?
A: The protein stability index was 1.79.

Q: For RVFKARIYTNRYETNEEHKTLQEI [D18H], which protein stability index is on record?
A: Its protein stability index is 2.16.

Q: Which protein stability index does the source give for RVFKARIYTNRYETNEEMKTLQEI [D18M] here?
A: The protein stability index was 2.22.

Q: Which protein stability index does the source give for RVFKARIYTNRYETNEEKKTLQEI [D18K] here?
A: Its protein stability index is 2.7.

Q: With RVFKARIYTNRYETNEEFKTLQEI [D18F] as the variant, how does the protein stability index read?
A: Its protein stability index is 1.67.

Q: Which protein stability index does the source give for RVFKARIYTNRYETNEEQKTLQEI [D18Q] here?
A: Its protein stability index is 2.78.

Q: With RVFKARIYTNRYETNEESKTLQEI [D18S] as the variant, how does the protein stability index read?
A: Its protein stability index is 1.71.

Q: For RVFKARIYTNRYETNEEEKTLQEI [D18E], which protein stability index is on record?
A: The protein stability index was 2.48.

Q: For RVFKARIYTNRYETNEECKTLQEI [D18C], which protein stability index is on record?
A: The protein stability index was 2.33.

Q: For RVFKARIYTNRYETNEEPKTLQEI [D18P], which protein stability index is on record?
A: Its protein stability index is 2.56.

Q: For RVFKARIYTNRYETNEEIKTLQEI [D18I], which protein stability index is on record?
A: The protein stability index was 2.68.

Q: Which protein stability index does the source give for RVFKARIYTNRYETNEEYKTLQEI [D18Y] here?
A: The protein stability index was 2.78.

Q: With RVFKARIYTNRYETNEENKTLQEI [D18N] as the variant, how does the protein stability index read?
A: The protein stability index was 2.25.

Q: For RVFKARIYTNRYETNEEWKTLQEI [D18W], which protein stability index is on record?
A: The protein stability index was 2.18.

Q: For RVFKARIYTNRYETNEEGKTLQEI [D18G], which protein stability index is on record?
A: Its protein stability index is 2.53.

Q: With RVFKARIYTNRYETNEELKTLQEI [D18L] as the variant, how does the protein stability index read?
A: Its protein stability index is 2.46.

Q: For RVFKARIYTNRYETNEETKTLQEI [D18T], which protein stability index is on record?
A: The protein stability index was 2.36.

Q: Which protein stability index does the source give for RVFKARIYTNRYETNEEVKTLQEI [D18V] here?
A: Its protein stability index is 2.4.

Q: With RVFKARIYTNRYETNEERKTLQEI [D18R] as the variant, how does the protein stability index read?
A: Its protein stability index is 2.38.

Q: For RVFKARIYTNRYETNEEAKTLQEI [D18A], which protein stability index is on record?
A: The protein stability index was 3.19.

Q: For RVFKARIYTNRYETNEEDKTKQEI [L21K], which protein stability index is on record?
A: The protein stability index was 2.5.

Q: Which protein stability index does the source give for RVFKARIYTNRYETNEEDKTCQEI [L21C] here?
A: The protein stability index was 2.21.

Q: For RVFKARIYTNRYETNEEDKTTQEI [L21T], which protein stability index is on record?
A: Its protein stability index is 2.97.

Q: With RVFKARIYTNRYETNEEDKTIQEI [L21I] as the variant, how does the protein stability index read?
A: The protein stability index was 2.62.

Q: Which protein stability index does the source give for RVFKARIYTNRYETNEEDKTAQEI [L21A] here?
A: The protein stability index was 2.9.

Q: With RVFKARIYTNRYETNEEDKTNQEI [L21N] as the variant, how does the protein stability index read?
A: The protein stability index was 3.26.

Q: With RVFKARIYTNRYETNEEDKTMQEI [L21M] as the variant, how does the protein stability index read?
A: The protein stability index was 3.24.

Q: With RVFKARIYTNRYETNEEDKTWQEI [L21W] as the variant, how does the protein stability index read?
A: The protein stability index was 2.5.

Q: For RVFKARIYTNRYETNEEDKTPQEI [L21P], which protein stability index is on record?
A: The protein stability index was 3.27.

Q: With RVFKARIYTNRYETNEEDKTDQEI [L21D] as the variant, how does the protein stability index read?
A: Its protein stability index is 3.88.

Q: For RVFKARIYTNRYETNEEDKTEQEI [L21E], which protein stability index is on record?
A: The protein stability index was 3.38.

Q: Which protein stability index does the source give for RVFKARIYTNRYETNEEDKTFQEI [L21F] here?
A: The protein stability index was 2.52.
